Measurements as given in PMC5727262, “Molecular mechanism of K65 acetylation-induced attenuation of Ubc9 and the NDSM interaction” (Scientific Reports, 2017).

What was measured:
[1] = molecular target: T1, Ubc9 (WT) (Homo sapiens, UniProt P63279); test: Multiple-turnover in vitro sumoylation kinetics with WT Ubc9; format: biochemical; details: Michaelis-Menten, SUMO-1 conjugation; for Km: 100 nM WT Ubc9, 10 μM SUMO-1, 150 nM E1, pH 7.5, SDS-PAGE/SYPRO-RUBY, triplicate; for kcat: 100 nM WT Ubc9, 10 μM SUMO-1, 150 nM E1, pH 7.5, triplicate
T1 construct: made in house; host or cells: E. coli (stated as BL21 (DE3) for the acetylated variant)
Description: (§1) Although the decreased Ubc9 binding to the NDSM substrates on K65 acetylation could explain the reduced levels of NDSM substrate sumoylation, we could not entirely exclude the possibility that K65 acetylation could also affect Ubc9 catalytic activity. To test this possibility, an enzyme kinetics study was performed using multiple-turnover in vitro sumoylation assays between WT or Ac-Ubc9K65 and GST fusion of SM derived from RanGAP1 (Fig. 3A and B), Elk1 (Fig. 3C and D), and CBP (Fig. 3E and F). […] In line with the ITC results, K65 acetylation increased the km values by 1.5–1.7 fold of the NDSM peptides, but not the RanGAP1 SM.
(§2) Figure 3 Effect of K65 acetylation on Ubc9 catalysis. (A) Summary of Michaelis–Menten kinetics applied to SUMO conjugation rates for GST-RanGAP1_481-587 (B and C), GST-Elk1_200-261 (D and E) and GST-CBP1000-1080 (F and G). Experiments performed in triplicate. TEXT PRINTED IN THE PICTURE: (A) RanGAP1: Km (μM): 24.8 ± 1.7 (Ubc9: WT); kcat (min^-1): 4.3 ± 0.1 (Ubc9: WT); Km (μM): 21.0 ± 4.4 (Ubc9: K65-Ac); kcat (min^-1): 4.1 ± 0.3 (Ubc9: K65-Ac) | (A) Elk1: Km (μM): 75.2 ± 5.9 (Ubc9: WT); kcat (min^-1): 3.7 ± 0.5 (Ubc9: WT); Km (μM): 110.7 ± 7.8 (Ubc9: K65-Ac); kcat (min^-1): 4.0 ± 0.2 (Ubc9: K65-Ac) | (A) CBP: Km (μM): 63.8 ± 7.9 (Ubc9: WT); kcat (min^-1): 3.8 ± 0.4 (Ubc9: WT); Km (μM): 111.0 ± 11.6 (Ubc9: K65-Ac); kcat (min^-1): 4.5 ± 0.4 (Ubc9: K65-Ac) | (A) Calpain2: Km (μM): N.D. (Ubc9: WT); kcat (min^-1): N.D. (Ubc9: WT); Km (μM): N.D. (Ubc9: K65-Ac); kcat (min^-1): N.D. (Ubc9: K65-Ac)
(§3) The kinetic analysis[27] was performed in a 40 μl reaction mixture containing 10 μM SUMO-1, 150 nM E1, 100 nM WT or Ac-Ubc9K65, and known quantities of sumoylation substrate dissolved in a buffer containing 20 mM HEPES (pH 7.5), 100 mM NaCl, 5 mM MgCl2, and 2 mM ATP. The samples were subject to SDS-PAGE and visualized by SYPRO-RUBY staining using the UVP Gel-Doc-It system to quantify the sumoylated and non-sumoylated protein bands. Data from triplicate experiments were plotted as a graph of reaction velocity against concentration of the substrate to obtain the Michaelis–Menten constant (km) and the turnover number (kcat).

[2] = molecular target: T2, Ac-Ubc9K65 (Homo sapiens, UniProt P63279); test: Multiple-turnover in vitro sumoylation kinetics with Ac-Ubc9K65; format: biochemical; details: Michaelis-Menten, SUMO-1 conjugation; for Km: 100 nM Ac-Ubc9K65, 10 μM SUMO-1, 150 nM E1, pH 7.5, SDS-PAGE/SYPRO-RUBY, triplicate; for kcat: 100 nM Ac-Ubc9K65, 10 μM SUMO-1, 150 nM E1, pH 7.5, triplicate
T2 construct: made in house; host or cells: E. coli BL21 (DE3) with pAcKRS-3 and pCDF PylT-1-Ubc9 (amber codon at K65), fed acetyl-lysine
Description: as §1, §2, §3

T1 sequence (P63279 whole entry): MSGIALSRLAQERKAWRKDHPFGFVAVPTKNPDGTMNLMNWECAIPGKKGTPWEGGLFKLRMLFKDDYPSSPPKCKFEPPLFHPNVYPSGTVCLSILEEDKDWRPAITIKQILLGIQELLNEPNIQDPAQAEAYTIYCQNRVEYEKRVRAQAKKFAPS
T2 sequence (P63279 2-158): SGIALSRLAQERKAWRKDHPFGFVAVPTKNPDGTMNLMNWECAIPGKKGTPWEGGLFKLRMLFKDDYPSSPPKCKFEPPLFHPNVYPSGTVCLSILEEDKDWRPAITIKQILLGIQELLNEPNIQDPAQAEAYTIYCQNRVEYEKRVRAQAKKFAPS

| Molecule | Km [1] | kcat [1] | Km [2] | kcat [2] |
| --- | --- | --- | --- | --- |
| GST-Elk1_200-261: GST fusion of the sumoylation motif region derived from Elk1, sumoylation substrate (protein, also: GST fusion partner not in chain, GST fusion of the sumoylation motif region derived from Elk1, sumoylation substrate) SPSPLEACLEAEEAGLPLQVILTPPEAPNLKSEELNVEPGLGRALPPEVKVEGPKEELEVAG | 75.2 ± 5.9 µM | 0.0617 ± 0.0083 s⁻¹ | 111 ± 7.8 µM | 0.0667 ± 0.0033 s⁻¹ |
| GST-RanGAP1_481-587: GST fusion of the sumoylation motif region derived from RanGAP1, sumoylation substrate (protein, left off: GST, end not stated, kept, GST fusion of the sumoylation motif region derived from RanGAP1, sumoylation substrate) KDEATVRMAVQDAVDALMQKAFNSSSFNSNTFLTRLLVHMGLLKSEDKVKAIANLYGPLMALNHMVQQDYFPKALAPLLLAFVTKPNSALESCSFARHSLLQTLYKV | 24.8 ± 1.7 µM | 0.0717 ± 0.0017 s⁻¹ | 21 ± 4.4 µM | 0.0683 ± 0.005 s⁻¹ |
| GST-CBP1000-1080: GST fusion of the sumoylation motif region derived from CBP, sumoylation substrate (protein, left off: GST, end not stated, kept, GST fusion of the sumoylation motif region derived from CBP, sumoylation substrate) ETQAEDTEPDPGESKGEPRSEMMEEDLQGASQVKEETDIAEQKSEPMEVDEKKPEVKVEVKEEEESSSNGTASQSTSPSQP | 63.8 ± 7.9 µM | 0.0633 ± 0.0067 s⁻¹ | 111 ± 11.6 µM | 0.075 ± 0.0067 s⁻¹ |
